Columns and labels:
[1] = target: E. coli MurD (Escherichia coli, UniProt P14900); settings: 350 μM UDP-N-acetyl-muramyl-L-alanine
Experimental: The ATP-dependent MurD activity was assayed by monitoring the formation of product ADP using the pyruvate kinase and lactate dehydrogenase coupled enzyme assay. The reaction was monitored spectrophotometrically.
Typically, the assay contained 100 mM BIS-TRIS-propane, pH 8.0, 200 μM NADH, 1 mM ATP, 20 mM PEP, 5 mM MgCl2, 1 mM DTT, 350 μM UDP-N-acetyl-muramyl-L-alanine, 1 mM D-glutamate, 33 units/ml of pyruvate kinase and 1660 units/ml of lactate dehydrogenase in a final volume of 200 or 400 μL. The mixture was incubated at 25° C. for 5 min and the reaction initiated by the addition of 1-10 μg of MurD. ADP formation was monitored by the decrease in absorbance at 340 nm as a function of time using a Molecular Devices SpectramaxPlus microtiterplate spectrophotomer (for 200 μl assays) or a Hewlett-Packard HP8452A spectrophotometer equipped with a circulating water bath (for 400 μl assays). Rates were calculated from the linear portions of the progress curves using the extinction coefficient for NADH, e=6220 cm^−1 M^−1. One unit of MurD activity is equal to 1 μmol of ADP formed per min at 25° C.
Assays have been conducted using 120 and 350 μM UDP-N-acetyl-muramyl-L-alanine.

[2] = tested on: S. pyogenes MurD; test: ATP-dependent MurD activity, pyruvate kinase/lactate dehydrogenase coupled enzyme assay (ADP formation); assay type: biochemical, Streptococcus pyogenes; settings: partially purified, UDP-N-acetylmuramyl-L-ala 350 μM, D-glutamate 1 mM, ATP 1 mM, 200 μl, 25° C.
Experimental: The cell pellet from 100 ml of induced culture prepared as described above was resuspended in 10 ml BT buffer (50 mM bis-tris-propane, pH 8.0, containing 100 mM potassium chloride and 1% glycerol) at 4° C. Cells were lysed either by freeze-thaw or by French Press. After centrifugation, the supernatant was mixed with 15 ml of freshly prepared Talon resin and incubated for 30 min at room temp. The resin was washed twice by centrifugation with 25 ml of BT buffer at room temperature. Finally, the resin loaded into a column and washed with 20 ml of BT, pH 7.0, containing 5 mM imidazole. Protein was eluted with 20 ml of BT buffer pH 8.0, containing 100 mM imidazole. Fractions (0.5 ml) were collected and analyzed by SDS-Gel electrophoresis. Fractions containing MurD were pooled, cleaved with thrombin (20 units/mg of His-tagged MurD) to remove the histidine tag. Finally the MurD protein was purified on Superdex 75 size exclusion column and eluted in 10 mM tris, pH 7.4, 150 mM NaCl and dialyzed in 100 mM MOPS, pH 7.5, using a Slide-A-Lyzer (Pierce, Rockford, Ill.). […] The protein may be purified further, if desired, using methods known in the art.
The reaction was monitored spectrophotometrically.

Chain of E. coli MurD (P14900 whole entry): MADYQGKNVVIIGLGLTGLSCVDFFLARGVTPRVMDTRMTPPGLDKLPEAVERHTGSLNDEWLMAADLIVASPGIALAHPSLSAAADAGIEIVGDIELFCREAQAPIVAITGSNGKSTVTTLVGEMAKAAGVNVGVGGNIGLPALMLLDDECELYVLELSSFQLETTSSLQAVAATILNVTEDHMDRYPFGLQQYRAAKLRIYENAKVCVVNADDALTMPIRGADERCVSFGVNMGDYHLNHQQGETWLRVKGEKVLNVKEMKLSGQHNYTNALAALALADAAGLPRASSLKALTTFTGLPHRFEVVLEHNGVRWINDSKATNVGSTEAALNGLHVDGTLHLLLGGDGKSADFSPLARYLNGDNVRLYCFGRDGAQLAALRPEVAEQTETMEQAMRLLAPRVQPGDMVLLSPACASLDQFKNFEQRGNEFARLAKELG

## CC(=O)N[C@H]1C(OP(=O)(O)OP(=O)(O)OC[C@H]2O[C@@H](n3ccc(=O)[nH]c3=O)[C@H](O)[C@@H]2O)O[C@H](CO)[C@@H](O)[C@@H]1O[C@H](C)C(=O)N[C@H](C)C(=O)O (stereo partly drawn) [UDP-N-acetyl-muramyl-L-alanine]
[1]
  substrate inhibition of the E. coli MurD: substrate inhibition

B1: S. pyogenes: recombinant Streptococcus pyogenes MurD protein (SEQ ID NO:2), His-tag removed, partially purified (protein)
chain: MKVISNFQNKKILILGLAKSGEAAAKLLTKLGALVTVNDSKPFDQNPAAQALLEEGIKVICGSHPVELLDEDFEYMVKNPGIPYDNPMVKRALAKEIPILTEVELAYFVSEAPIIGITGSNGKTTTTTMIADVLNAGGQSALLSGNIGYPASKVVQKAIAGDTLVMELSSFQLVGVNAFRPHIAVITNLMPTHLDYHGSFEDYVAAKWMIQAQMTESDYLILNANQEISATLAKTTQATVIPFSTQKVVDGAYLKDGILYFKEQAIIAATDLGVPGSHNIENALATIAVAKLSGIADDIIAQCLSHFGGVKHRLQRVGQIKDITFYNDSKSTNILATQKALSGFDNSRLILIAGGLDRGNEFDDLVPDLLGLKQMIILGESAERMKRAANKAEVSYLEARNVAEATELAFKLAQTGDTILLSPANASWDMYPNFEVRGDEFLATFDCLRGDA
modifications: His-tag removed; Streptococcus pyogenes MurD
[2]; 0.00137 mg protein
  units: 0.00017 µmol/min
[2]
  Specific activity: 0.13 µmol/min/mg
